T1: human TREM2 (human, UniProt Q9NZC2 19-174, limits assumed)
T1 construct: also called triggering receptor expressed on myeloid cells 2
T1 sequence: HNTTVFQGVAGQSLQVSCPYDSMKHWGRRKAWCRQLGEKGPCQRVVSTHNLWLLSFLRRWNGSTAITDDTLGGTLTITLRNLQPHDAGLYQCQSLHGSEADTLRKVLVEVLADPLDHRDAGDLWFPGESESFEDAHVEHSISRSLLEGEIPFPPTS

B1: V1 (antibody, V domains shown)
VH: EVQLVQSGAEVKKPGESLKISCKGSGYSFTSSWIAWVRQMPGKGLEWMGIIYPGDSDTRYSPSFQGQVTISADKSISTAYLQWSSLKASDTAMYFCARSRTFYYDSSDYFDYWGQGTLVTVSS
VL: DIQMTQSPSSVSASVGDRVTITCRASQGISSWLAWYQQKPGKAPKLLIYAASSLTNGVPSRFSGSGSGTDFTLTISSLQPEDFATYFCQQADSYPRTFGQGTKLEIK
B2: V3 (antibody, V domains shown)
VH: B1 VH with T30A, S32Y, G66D, S99G
VL: B1 VL with L54R, T55Q, S93R, Y94F
B3: V2 (antibody, V domains shown)
VH: B1 VH with Y27S, S32Y, S56G
VL: B1 VL with L54R, T55Q, S93R, Y94F
B4: V83 (antibody, V domains shown)
VH: B1 VH with S32Y, S99Q
VL: B1 VL with T55Q, D92V, Y94F
B5: V79 (antibody, V domains shown)
VH: B1 VH with S32Y, R59N, S99Q
VL: B1 VL with T55Q, Y94F
B6: V59 (antibody, V domains shown)
VH: B1 VH with S32Y, S99Q
VL: B1 VL with T55Q, Q89M, Y94F
B7: V46 (antibody, V domains shown)
VH: B1 VH with S32Y, S99Q
VL: B1 VL with S53T, T55Q, Y94F
B8: V43 (antibody, V domains shown)
VH: B1 VH with S32Y, D57G, S99Q
VL: B1 VL with T55Q, Y94F
B9: V92 (antibody, V domains shown)
VH: B1 VH with S32Y, S99Q, Y103H
VL: B1 VL with T55Q, Y94F
B10: V90 (antibody, V domains shown)
VH: B1 VH with S32E, S99Q
VL: B1 VL with S31R, T55Q, Y94F
B11: V66 (antibody, V domains shown)
VH: B1 VH with Y27T, S32Y, S99Q
VL: B1 VL with T55Q, Y94F
B12: V82 (antibody, V domains shown)
VH: B1 VH with S32Y, S99Q
VL: B1 VL with A51G, T55Q, Y94F
B13: V55 (antibody, V domains shown)
VH: B1 VH with S32Y, R59I, F64H, S99Q
VL: B1 VL with T55Q, Y94F
B14: V81 (antibody, V domains shown)
VH: B1 VH with S32Y, S99Q
VL: B1 VL with W32L, T55Q, Y94F
B15: V91 (antibody, V domains shown)
VH: B1 VH with S32Y, G54D, S99Q
VL: B1 VL with T55Q, Y94F
B16: V78 (antibody, V domains shown)
VH: B1 VH with S28R, S32Y, S99Q
VL: B1 VL with T55Q, Y94F
B17: V70 (antibody, V domains shown)
VH: B1 VH with S32Y, S99Q
VL: B1 VL with S52G, T55Q, Y94F
B18: V47 (antibody, V domains shown)
VH: B1 VH with S32Y, S99Q
VL: B1 VL with T55Q, Y94F, R96M
B19: V93 (antibody, V domains shown)
VH: B1 VH with S32Y, S99Q
VL: B1 VL with S31G, T55Q, Y94F
B20: V94 (antibody, V domains shown)
VH: B1 VH with S32Y, S99Q
VL: B1 VL with S52A, T55Q, Y94F
B21: V45 (antibody, V domains shown)
VH: B1 VH with S32Y, S99Q
VL: B1 VL with W32F, T55Q, Y94F
B22: V80 (antibody, V domains shown)
VH: B1 VH with S32Y, S99Q, T101N
VL: B1 VL with T55Q, Y94F
B23: V69 (antibody, V domains shown)
VH: B1 VH with S32Y, S99Q
VL: B1 VL with W32Y, T55Q, Y94F
B24: V44 (antibody, V domains shown)
VH: B1 VH with S32Y, G54S, S99Q
VL: B1 VL with T55Q, Y94F
B25: V67 (antibody, V domains shown)
VH: B1 VH with S32Y, I50M, S99Q
VL: B1 VL with T55Q, Y94F
B26: V58 (antibody, V domains shown)
VH: B1 VH with S32Y, S99Q
VL: B1 VL with A50K, T55Q, Y94F
B27: V54 (antibody, V domains shown)
VH: B1 VH with S32Q, S99Q
VL: B1 VL with T55Q, Y94F
B28: V71 (antibody, V domains shown)
VH: B1 VH with S32Y, S99Q
VL: B1 VL with T55Q, Y94E
B29: V56 (antibody, V domains shown)
VH: B1 VH with S32Y, S61Q, S99Q
VL: B1 VL with T55Q, Y94F
B30: V57 (antibody, V domains shown)
VH: B1 VH with S32Y, S99Q
VL: B1 VL with R24A, T55Q, Y94F
B31: V68 (antibody, V domains shown)
VH: B1 VH with S32Y, S99Q, Y103R
VL: B1 VL with T55Q, Y94F

Positions count from the first letter of the chain named.

The first assay deals with T1, human TREM2. The assay is described as follows: 2nd screen 10 nM.
For the molecule B1, the “Binding Signal (fold over 6E7 Parental antibody)” value was found to be 1.92 fold.

With B2, the “Binding Signal (fold over 6E7 Parental antibody)” value amounted to 2.24 fold.

For the molecule B3, the “Binding Signal (fold over 6E7 Parental antibody)” value worked out at 2.9 fold.

For another assay, the target named is T1, human TREM2. The assay is described as follows: 1st screen (110 nM or 10 nM).
Consider B1, for which the “Binding Signal (fold over 6E7 Parental antibody)” value was 1.68 fold.

In the case of B4, the “Binding Signal (fold over 6E7 Parental antibody)” value came out at 0.2 fold.

For the molecule B5, the “Binding Signal (fold over 6E7 Parental antibody)” value is 0.7 fold.

On to B6, for which the “Binding Signal (fold over 6E7 Parental antibody)” value was 0.19 fold.

B7: the “Binding Signal (fold over 6E7 Parental antibody)” value is 0.83 fold.

As to B8, the “Binding Signal (fold over 6E7 Parental antibody)” value was 0.2 fold.

On to B9, for which the “Binding Signal (fold over 6E7 Parental antibody)” value turned out to be 0.22 fold.

Take B10: the “Binding Signal (fold over 6E7 Parental antibody)” value came out at 0.33 fold.

Consider B11, for which the “Binding Signal (fold over 6E7 Parental antibody)” value was determined as 0.25 fold.

For the molecule B12, the “Binding Signal (fold over 6E7 Parental antibody)” value was 0.3 fold.

As to B13, the “Binding Signal (fold over 6E7 Parental antibody)” value was 0.24 fold.

B14: the “Binding Signal (fold over 6E7 Parental antibody)” value was found to be 0.17 fold.

For the molecule B15, the “Binding Signal (fold over 6E7 Parental antibody)” value was 0.25 fold.

Take B16: the “Binding Signal (fold over 6E7 Parental antibody)” value stood at 0.86 fold.

As for B17, the “Binding Signal (fold over 6E7 Parental antibody)” value was 0.79 fold.

In the case of B2, the “Binding Signal (fold over 6E7 Parental antibody)” value is 1.97 fold.

Take B18: the “Binding Signal (fold over 6E7 Parental antibody)” value was 0.42 fold.

For B19, the “Binding Signal (fold over 6E7 Parental antibody)” value turned out to be 0.35 fold.

In the case of B20, the “Binding Signal (fold over 6E7 Parental antibody)” value worked out at 0.31 fold.

For the molecule B21, the “Binding Signal (fold over 6E7 Parental antibody)” value was found to be 0.43 fold.

Regarding B22, the “Binding Signal (fold over 6E7 Parental antibody)” value is 0.59 fold.

For the molecule B23, the “Binding Signal (fold over 6E7 Parental antibody)” value is 0.41 fold.

With B24, the “Binding Signal (fold over 6E7 Parental antibody)” value came out at 0.65 fold.

Consider B25, for which the “Binding Signal (fold over 6E7 Parental antibody)” value stood at 0.8 fold.

In the case of B26, the “Binding Signal (fold over 6E7 Parental antibody)” value stood at 0.28 fold.

In the case of B27, the “Binding Signal (fold over 6E7 Parental antibody)” value was found to be 0.55 fold.

Take B3: the “Binding Signal (fold over 6E7 Parental antibody)” value was 2.55 fold.

Consider B28, for which the “Binding Signal (fold over 6E7 Parental antibody)” value is 0.37 fold.

As for B29, the “Binding Signal (fold over 6E7 Parental antibody)” value came to 0.23 fold.

On to B30, for which the “Binding Signal (fold over 6E7 Parental antibody)” value worked out at 0.84 fold.

Take B31: the “Binding Signal (fold over 6E7 Parental antibody)” value is 0.44 fold.

In another assay the target is T1, human TREM2. Nature of the assay: 2nd screen 2 nM.
In the case of B1, the “Binding Signal (fold over 6E7 Parental antibody)” value was 1.29 fold.

On to B2, for which the “Binding Signal (fold over 6E7 Parental antibody)” value was 1.95 fold.

For B3, the “Binding Signal (fold over 6E7 Parental antibody)” value was 2.23 fold.

The next assay deals with T1, human TREM2. The assay is described as follows: 2nd screen 100 nM.
In the case of B4, the “Binding Signal (fold over 6E7 Parental antibody)” value was 0.29 fold.

Turning to B5, the “Binding Signal (fold over 6E7 Parental antibody)” value amounted to 0.52 fold.

For B6, the “Binding Signal (fold over 6E7 Parental antibody)” value stood at 0.6 fold.

Regarding B7, the “Binding Signal (fold over 6E7 Parental antibody)” value was 0.96 fold.

Consider B8, for which the “Binding Signal (fold over 6E7 Parental antibody)” value was 0.33 fold.

With B9, the “Binding Signal (fold over 6E7 Parental antibody)” value amounted to 0.65 fold.

As for B10, the “Binding Signal (fold over 6E7 Parental antibody)” value worked out at 0.36 fold.

Turning to B11, the “Binding Signal (fold over 6E7 Parental antibody)” value is 0.74 fold.

As to B12, the “Binding Signal (fold over 6E7 Parental antibody)” value came out at 0.79 fold.

As to B13, the “Binding Signal (fold over 6E7 Parental antibody)” value stood at 0.66 fold.

In the case of B14, the “Binding Signal (fold over 6E7 Parental antibody)” value is 0.23 fold.

Regarding B15, the “Binding Signal (fold over 6E7 Parental antibody)” value is 0.61 fold.

B16: the “Binding Signal (fold over 6E7 Parental antibody)” value was 1.11 fold.

Take B17: the “Binding Signal (fold over 6E7 Parental antibody)” value came to 0.84 fold.

B18: the “Binding Signal (fold over 6E7 Parental antibody)” value worked out at 0.47 fold.

Take B19: the “Binding Signal (fold over 6E7 Parental antibody)” value stood at 1.05 fold.

Turning to B20, the “Binding Signal (fold over 6E7 Parental antibody)” value is 0.87 fold.

In the case of B21, the “Binding Signal (fold over 6E7 Parental antibody)” value is 0.53 fold.

Turning to B22, the “Binding Signal (fold over 6E7 Parental antibody)” value was found to be 0.5 fold.

On to B23, for which the “Binding Signal (fold over 6E7 Parental antibody)” value was 0.4 fold.

For B24, the “Binding Signal (fold over 6E7 Parental antibody)” value was determined as 0.52 fold.

With B25, the “Binding Signal (fold over 6E7 Parental antibody)” value was determined as 0.84 fold.

For B26, the “Binding Signal (fold over 6E7 Parental antibody)” value was determined as 0.68 fold.

As to B27, the “Binding Signal (fold over 6E7 Parental antibody)” value was 0.54 fold.

B28: the “Binding Signal (fold over 6E7 Parental antibody)” value was 0.48 fold.

Turning to B29, the “Binding Signal (fold over 6E7 Parental antibody)” value was 0.59 fold.

Take B30: the “Binding Signal (fold over 6E7 Parental antibody)” value was 0.85 fold.

B31: the “Binding Signal (fold over 6E7 Parental antibody)” value was determined as 0.43 fold.

The record behind these values is patent US20250282866A1 (VIGIL NEUROSCIENCE, published 2025).
